In article PMC9652086:

Target: h4#147D, humanized IgG4-formatted anti-CD147 antibody (IgG4Pro, heavy chain S228P) (human)
Assay: SPR; Biacore T200; purified h4#147D captured on the sensor chip with a human antibody capture kit, recombinant human or monkey CD147 injected; 1:1 fitting model

h4#147D, humanized IgG4-formatted anti-CD147 antibody (IgG4Pro, heavy chain S228P) (human), sequence (heavy, as listed by the source, chain 1 of 2): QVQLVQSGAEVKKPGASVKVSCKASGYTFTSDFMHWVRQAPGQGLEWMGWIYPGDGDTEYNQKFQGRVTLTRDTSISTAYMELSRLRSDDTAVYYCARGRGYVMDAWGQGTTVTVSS
h4#147D, humanized IgG4-formatted anti-CD147 antibody (IgG4Pro, heavy chain S228P) (human), sequence (light, as listed by the source, chain 2 of 2): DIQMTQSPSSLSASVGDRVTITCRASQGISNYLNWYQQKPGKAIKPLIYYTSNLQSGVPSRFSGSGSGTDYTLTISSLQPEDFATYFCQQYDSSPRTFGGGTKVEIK

Kd: 5.8 nM
Substance: recombinant monkey CD147 protein (natural protein)
